Here are results for six molecules from article doi:10.1101/521815 (bioRxiv, 2019).

The term Kd denotes the equilibrium constant for the complex coming apart. Higher therefore signals a looser complex. What is called stoichiometry N is a count of units in the complex or per binding partner.

Series [1] deals with M1-linked tetra-ubiquitin (UniProt P0CG48 1-76; P0CG48 1-76; P0CG48 1-76; P0CG48 1-76). Briefly: SPR. (In general: SPR reads the build-up and loss of mass on a sensor chip optically.)
The series “crystal structure” deals with the molecule itself. Briefly: crystal structure.

M1-linked tetra-ubiquitin, sequence (P0CG48 1-304, one chain of several): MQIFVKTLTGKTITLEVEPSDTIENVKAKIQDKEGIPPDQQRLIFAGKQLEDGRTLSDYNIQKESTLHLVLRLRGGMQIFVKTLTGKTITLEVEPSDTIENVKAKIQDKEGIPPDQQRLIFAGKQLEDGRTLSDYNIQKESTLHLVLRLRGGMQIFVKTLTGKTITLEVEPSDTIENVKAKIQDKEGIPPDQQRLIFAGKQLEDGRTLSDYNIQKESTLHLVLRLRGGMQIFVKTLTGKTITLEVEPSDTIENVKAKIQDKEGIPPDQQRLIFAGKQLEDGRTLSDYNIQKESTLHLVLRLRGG

B1: GST-NEMO UBAN (aa 250-339), wild type (domain or fragment, mouse, UniProt O88522 250-339, looked up)
chain: GMQLEDLRQQLQQAEEALVAKQELIDKLKEEAEQHKIVMETVPVLKAQADIYKADFQAERHAREKLVEKKEYLQEQLEQLQREFNKLKVG
In series [1], B1 yielded a Kd of 562 nM.

B2: GST-NEMO UBAN (aa 250-339) A303E (domain or fragment, mouse, UniProt O88522 250-339, looked up)
chain: GMQLEDLRQQLQQAEEALVAKQELIDKLKEEAEQHKIVMETVPVLKAQADIYKEDFQAERHAREKLVEKKEYLQEQLEQLQREFNKLKVG
As for B2, binding in series [1] was characterised by a dissociation constant (Kd) of 362 nM. Against the preceding molecule, the Kd is about 1.6-fold lower.

B3: GST-ABIN-1 UBAN (aa 463-532), wild type (domain or fragment, mouse, UniProt Q9WUU8 463-532, looked up)
chain: LRKQELVTQNELLKQQVKIFEEDFQRERSDRERMNEEKEELKKQVEKLQAQVTLTNAQLKTLKEEEKAKE
In series [1], B3 displayed a Kd of 972 nM.

B4: ABIN-1 UBAN (mouse, aa 463-532), GST tag cleaved (domain or fragment, UniProt Q9WUU8 463-532, looked up)
chain: LRKQELVTQNELLKQQVKIFEEDFQRERSDRERMNEEKEELKKQVEKLQAQVTLTNAQLKTLKEEEKAKE
Regarding B4, the “stoichiometry N” value in “crystal structure” came out at 2 chains in the oligomer.

B5: GST-OPTN UBAN (aa 420-509) S473E (domain or fragment, human, UniProt Q96CV9 420-509, looked up)
chain: RAVLKELSEKLELAEKALASKQLQMDEMKQTIAKQEEDLETMTILRAQMEVYCEDFHAERAAREKIHEEKEQLALQLAVLLKENDAFEDG
For the molecule B5, the Kd in series [1] was 508 nM. This counts as sub-micromolar.

B6: GST-OPTN UBAN (aa 420-509), wild type (domain or fragment, human, UniProt Q96CV9 420-509, looked up)
chain: RAVLKELSEKLELAEKALASKQLQMDEMKQTIAKQEEDLETMTILRAQMEVYCSDFHAERAAREKIHEEKEQLALQLAVLLKENDAFEDG
For B6, in series [1], the dissociation constant Kd amounted to 916 nM.
